From paper PMC9482650, “Quantitative fragmentomics allow affinity mapping of interactomes” (Nature Communications, 2022)

molecular target: T1, MPDZ_10, O75970; experiment: holdup assay; parameters: key: below the threshold = too weak to quantify, mostly under pKd 3.1 to 4; conditions: plain residues with an end cap or a label only (N-terminal biotin on a linker: ado-ado)
T1 sequence (O75970 1624-1722, limits assumed, looked up): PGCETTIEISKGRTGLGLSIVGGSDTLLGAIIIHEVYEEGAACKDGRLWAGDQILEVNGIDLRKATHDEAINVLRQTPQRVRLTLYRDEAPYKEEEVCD

| Binder | pKd |
| --- | --- |
| AAVENKVTDL [PLXNB1, O43157] | below the threshold |
| PYPTADHMLA [JUP, P14923] | below the threshold |

molecular target: GORASP2, Q9H8Y8; experiment: holdup assay; parameters: key: below the threshold = too weak to quantify, mostly under pKd 3.1 to 4; conditions: plain residues with an end cap or a label only (N-terminal biotin on a linker: ado-ado)

| Binder | pKd |
| --- | --- |
| AAVENKVTDL [PLXNB1, O43157] | 3.9 |
| PYPTADHMLA [JUP, P14923] | below the threshold |

molecular target: T2, TIAM2, Q8IVF5; experiment: holdup assay; parameters: key: below the threshold = too weak to quantify, mostly under pKd 3.1 to 4; conditions: plain residues with an end cap or a label only (N-terminal biotin on a linker: ado-ado)
T2 sequence (Q8IVF5 885-986, limits assumed, looked up): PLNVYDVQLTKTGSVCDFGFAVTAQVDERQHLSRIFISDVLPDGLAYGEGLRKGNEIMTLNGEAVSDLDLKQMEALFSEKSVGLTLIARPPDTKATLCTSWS

| Binder | pKd |
| --- | --- |
| AAVENKVTDL [PLXNB1, O43157] | below the threshold |
| PYPTADHMLA [JUP, P14923] | 3.92 |

molecular target: TJP1_2, Q07157; experiment: holdup assay; parameters: key: below the threshold = too weak to quantify, mostly under pKd 3.1 to 4; conditions: plain residues with an end cap or a label only (N-terminal biotin on a linker: ado-ado)
Sequence (Q07157 181-274): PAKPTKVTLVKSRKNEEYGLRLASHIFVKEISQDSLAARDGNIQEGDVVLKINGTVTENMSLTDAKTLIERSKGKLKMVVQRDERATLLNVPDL

| Binder | pKd |
| --- | --- |
| AAVENKVTDL [PLXNB1, O43157] | below the threshold |
| PYPTADHMLA [JUP, P14923] | below the threshold |

molecular target: LDB3, O75112; experiment: holdup assay; parameters: key: below the threshold = too weak to quantify, mostly under pKd 3.1 to 4; conditions: plain residues with an end cap or a label only (N-terminal biotin on a linker: ado-ado)
Sequence (O75112 1-94): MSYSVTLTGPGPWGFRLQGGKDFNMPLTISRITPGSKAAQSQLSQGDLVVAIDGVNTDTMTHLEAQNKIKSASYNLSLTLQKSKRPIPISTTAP

| Binder | pKd |
| --- | --- |
| AAVENKVTDL [PLXNB1, O43157] | below the threshold |
| PYPTADHMLA [JUP, P14923] | below the threshold |

molecular target: T3, GRIP1_7, Q9Y3R0; experiment: holdup assay; parameters: key: below the threshold = too weak to quantify, mostly under pKd 3.1 to 4; conditions: plain residues with an end cap or a label only (N-terminal biotin on a linker: ado-ado)
T3 sequence (Q9Y3R0 999-1096, limits assumed, looked up): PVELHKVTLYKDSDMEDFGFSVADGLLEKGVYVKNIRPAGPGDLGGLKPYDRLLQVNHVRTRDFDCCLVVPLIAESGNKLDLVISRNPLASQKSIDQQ

| Binder | pKd |
| --- | --- |
| AAVENKVTDL [PLXNB1, O43157] | below the threshold |
| PYPTADHMLA [JUP, P14923] | below the threshold |

molecular target: DLG2_2, Q15700; experiment: holdup assay; parameters: key: below the threshold = too weak to quantify, mostly under pKd 3.1 to 4; conditions: plain residues with an end cap or a label only (N-terminal biotin on a linker: ado-ado)

| Binder | pKd |
| --- | --- |
| AAVENKVTDL [PLXNB1, O43157] | 3.95 |
| PYPTADHMLA [JUP, P14923] | below the threshold |

molecular target: MAGI2_2, Q86UL8; experiment: holdup assay; parameters: key: below the threshold = too weak to quantify, mostly under pKd 3.1 to 4; conditions: plain residues with an end cap or a label only (N-terminal biotin on a linker: ado-ado)
Sequence (Q86UL8 410-522): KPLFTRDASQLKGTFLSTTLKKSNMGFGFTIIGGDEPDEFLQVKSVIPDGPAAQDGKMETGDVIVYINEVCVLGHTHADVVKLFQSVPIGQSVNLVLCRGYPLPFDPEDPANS

| Binder | pKd |
| --- | --- |
| AAVENKVTDL [PLXNB1, O43157] | below the threshold |
| PYPTADHMLA [JUP, P14923] | below the threshold |

molecular target: SCRIB_3, Q14160; experiment: holdup assay; parameters: key: below the threshold = too weak to quantify, mostly under pKd 3.1 to 4; conditions: plain residues with an end cap or a label only (N-terminal biotin on a linker: ado-ado)
Sequence (Q14160 999-1103): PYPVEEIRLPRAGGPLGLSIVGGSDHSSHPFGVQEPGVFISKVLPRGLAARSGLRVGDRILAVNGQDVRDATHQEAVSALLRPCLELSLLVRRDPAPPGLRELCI

| Binder | pKd |
| --- | --- |
| AAVENKVTDL [PLXNB1, O43157] | 4.94 |
| PYPTADHMLA [JUP, P14923] | below the threshold |

molecular target: AHNAK1, Q09666; experiment: holdup assay; parameters: key: below the threshold = too weak to quantify, mostly under pKd 3.1 to 4; conditions: plain residues with an end cap or a label only (N-terminal biotin on a linker: ado-ado)
Sequence (Q09666 4-100): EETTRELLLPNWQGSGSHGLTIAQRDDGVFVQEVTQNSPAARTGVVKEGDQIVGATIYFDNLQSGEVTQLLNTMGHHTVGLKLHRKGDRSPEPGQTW

| Binder | pKd |
| --- | --- |
| AAVENKVTDL [PLXNB1, O43157] | below the threshold |
| PYPTADHMLA [JUP, P14923] | below the threshold |

molecular target: T4, GRIP1_2, Q9Y3R0; experiment: holdup assay; parameters: key: below the threshold = too weak to quantify, mostly under pKd 3.1 to 4; conditions: plain residues with an end cap or a label only (N-terminal biotin on a linker: ado-ado)
T4 sequence (Q9Y3R0 145-248, limits assumed, looked up): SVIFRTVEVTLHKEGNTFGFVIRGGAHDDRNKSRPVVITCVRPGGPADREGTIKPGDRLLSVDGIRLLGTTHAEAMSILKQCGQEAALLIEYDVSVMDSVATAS

| Binder | pKd |
| --- | --- |
| AAVENKVTDL [PLXNB1, O43157] | below the threshold |
| PYPTADHMLA [JUP, P14923] | below the threshold |

molecular target: TJP1_3, Q07157; experiment: holdup assay; parameters: key: below the threshold = too weak to quantify, mostly under pKd 3.1 to 4; conditions: plain residues with an end cap or a label only (N-terminal biotin on a linker: ado-ado)
Sequence (Q07157 416-512): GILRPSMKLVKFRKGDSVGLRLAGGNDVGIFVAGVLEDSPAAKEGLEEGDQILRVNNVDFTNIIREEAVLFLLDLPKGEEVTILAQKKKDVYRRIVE

| Binder | pKd |
| --- | --- |
| AAVENKVTDL [PLXNB1, O43157] | below the threshold |
| PYPTADHMLA [JUP, P14923] | below the threshold |

molecular target: GRID2IP_1, A4D2P6; experiment: holdup assay; parameters: key: below the threshold = too weak to quantify, mostly under pKd 3.1 to 4; conditions: plain residues with an end cap or a label only (N-terminal biotin on a linker: ado-ado)
Sequence (A4D2P6 1-87): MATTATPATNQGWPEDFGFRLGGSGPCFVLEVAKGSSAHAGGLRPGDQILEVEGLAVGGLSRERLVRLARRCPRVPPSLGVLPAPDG

| Binder | pKd |
| --- | --- |
| AAVENKVTDL [PLXNB1, O43157] | below the threshold |
| PYPTADHMLA [JUP, P14923] | below the threshold |

molecular target: NHERF4_4, Q86UT5; experiment: holdup assay; parameters: key: below the threshold = too weak to quantify, mostly under pKd 3.1 to 4; conditions: plain residues with an end cap or a label only (N-terminal biotin on a linker: ado-ado)
Sequence (Q86UT5 464-550): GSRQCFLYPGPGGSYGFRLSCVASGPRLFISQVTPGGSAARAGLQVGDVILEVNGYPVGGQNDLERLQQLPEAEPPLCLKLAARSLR

| Binder | pKd |
| --- | --- |
| AAVENKVTDL [PLXNB1, O43157] | below the threshold |
| PYPTADHMLA [JUP, P14923] | below the threshold |

molecular target: GRIP2_7, Q9C0E4; experiment: holdup assay; parameters: key: below the threshold = too weak to quantify, mostly under pKd 3.1 to 4; conditions: plain residues with an end cap or a label only (N-terminal biotin on a linker: ado-ado)
Sequence (Q9C0E4 934-1023): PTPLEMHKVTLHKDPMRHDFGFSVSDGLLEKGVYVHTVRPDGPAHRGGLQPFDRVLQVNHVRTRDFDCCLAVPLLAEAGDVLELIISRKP

| Binder | pKd |
| --- | --- |
| AAVENKVTDL [PLXNB1, O43157] | below the threshold |
| PYPTADHMLA [JUP, P14923] | below the threshold |

molecular target: DLG1_3, Q12959; experiment: holdup assay; parameters: key: below the threshold = too weak to quantify, mostly under pKd 3.1 to 4; conditions: plain residues with an end cap or a label only (N-terminal biotin on a linker: ado-ado)

| Binder | pKd |
| --- | --- |
| AAVENKVTDL [PLXNB1, O43157] | below the threshold |
| PYPTADHMLA [JUP, P14923] | below the threshold |

molecular target: GOPC, Q9HD26; experiment: holdup assay; parameters: key: below the threshold = too weak to quantify, mostly under pKd 3.1 to 4; conditions: plain residues with an end cap or a label only (N-terminal biotin on a linker: ado-ado)

| Binder | pKd |
| --- | --- |
| AAVENKVTDL [PLXNB1, O43157] | 3.65 |
| PYPTADHMLA [JUP, P14923] | below the threshold |

molecular target: T5, LIN7A, O14910; experiment: holdup assay; parameters: key: below the threshold = too weak to quantify, mostly under pKd 3.1 to 4; conditions: plain residues with an end cap or a label only (N-terminal biotin on a linker: ado-ado)
T5 sequence (O14910 103-200, limits assumed, looked up): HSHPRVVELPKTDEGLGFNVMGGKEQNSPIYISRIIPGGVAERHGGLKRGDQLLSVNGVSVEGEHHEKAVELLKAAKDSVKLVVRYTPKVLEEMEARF

| Binder | pKd |
| --- | --- |
| AAVENKVTDL [PLXNB1, O43157] | below the threshold |
| PYPTADHMLA [JUP, P14923] | below the threshold |

molecular target: T6, NHERF3_1, Q5T2W1; experiment: holdup assay; parameters: key: below the threshold = too weak to quantify, mostly under pKd 3.1 to 4; conditions: plain residues with an end cap or a label only (N-terminal biotin on a linker: ado-ado)
T6 sequence (Q5T2W1 4-100, limits assumed, looked up): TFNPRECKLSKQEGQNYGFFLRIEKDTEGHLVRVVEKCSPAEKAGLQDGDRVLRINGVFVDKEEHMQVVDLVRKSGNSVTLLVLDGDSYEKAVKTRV

| Binder | pKd |
| --- | --- |
| AAVENKVTDL [PLXNB1, O43157] | below the threshold |
| PYPTADHMLA [JUP, P14923] | below the threshold |

molecular target: T7, APBA1_1, Q02410; experiment: holdup assay; parameters: key: below the threshold = too weak to quantify, mostly under pKd 3.1 to 4; conditions: plain residues with an end cap or a label only (N-terminal biotin on a linker: ado-ado)
T7 sequence (Q02410 651-752, limits assumed, looked up): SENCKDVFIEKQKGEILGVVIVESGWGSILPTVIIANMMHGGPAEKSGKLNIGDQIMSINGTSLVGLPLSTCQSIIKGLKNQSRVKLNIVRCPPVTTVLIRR

| Binder | pKd |
| --- | --- |
| AAVENKVTDL [PLXNB1, O43157] | below the threshold |
| PYPTADHMLA [JUP, P14923] | below the threshold |

molecular target: DLG1_1, Q12959; experiment: holdup assay; parameters: key: below the threshold = too weak to quantify, mostly under pKd 3.1 to 4; conditions: plain residues with an end cap or a label only (N-terminal biotin on a linker: ado-ado)

| Binder | pKd |
| --- | --- |
| AAVENKVTDL [PLXNB1, O43157] | 3.7 |
| PYPTADHMLA [JUP, P14923] | below the threshold |

molecular target: GIPC2, Q8TF65; experiment: holdup assay; parameters: key: below the threshold = too weak to quantify, mostly under pKd 3.1 to 4; conditions: plain residues with an end cap or a label only (N-terminal biotin on a linker: ado-ado)
Sequence (Q8TF65 112-203): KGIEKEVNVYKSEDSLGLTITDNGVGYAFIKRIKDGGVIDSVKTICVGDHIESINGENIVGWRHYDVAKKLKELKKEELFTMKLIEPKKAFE

| Binder | pKd |
| --- | --- |
| AAVENKVTDL [PLXNB1, O43157] | below the threshold |
| PYPTADHMLA [JUP, P14923] | below the threshold |

molecular target: T8, PCLO, Q9Y6V0; experiment: holdup assay; parameters: key: below the threshold = too weak to quantify, mostly under pKd 3.1 to 4; conditions: plain residues with an end cap or a label only (N-terminal biotin on a linker: ado-ado)
T8 sequence (Q9Y6V0 4491-4600, limits assumed, looked up): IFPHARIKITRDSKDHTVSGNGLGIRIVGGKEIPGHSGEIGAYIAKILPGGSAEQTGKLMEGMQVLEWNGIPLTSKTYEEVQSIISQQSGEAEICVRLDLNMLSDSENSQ

| Binder | pKd |
| --- | --- |
| AAVENKVTDL [PLXNB1, O43157] | below the threshold |
| PYPTADHMLA [JUP, P14923] | below the threshold |

molecular target: T9, RADIL, Q96JH8; experiment: holdup assay; parameters: key: below the threshold = too weak to quantify, mostly under pKd 3.1 to 4; conditions: plain residues with an end cap or a label only (N-terminal biotin on a linker: ado-ado)
T9 sequence (Q96JH8 971-1071, limits assumed, looked up): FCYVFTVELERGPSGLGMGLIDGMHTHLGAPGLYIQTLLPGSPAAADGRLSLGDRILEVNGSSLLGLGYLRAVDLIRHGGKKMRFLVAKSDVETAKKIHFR

| Binder | pKd |
| --- | --- |
| AAVENKVTDL [PLXNB1, O43157] | below the threshold |
| PYPTADHMLA [JUP, P14923] | below the threshold |

molecular target: MAGI2_3, Q86UL8; experiment: holdup assay; parameters: key: below the threshold = too weak to quantify, mostly under pKd 3.1 to 4; conditions: plain residues with an end cap or a label only (N-terminal biotin on a linker: ado-ado)
Sequence (Q86UL8 600-682): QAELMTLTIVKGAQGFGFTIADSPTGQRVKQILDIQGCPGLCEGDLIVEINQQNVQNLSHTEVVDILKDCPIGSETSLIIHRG

| Binder | pKd |
| --- | --- |
| AAVENKVTDL [PLXNB1, O43157] | below the threshold |
| PYPTADHMLA [JUP, P14923] | below the threshold |

molecular target: DLG2_3, Q15700; experiment: holdup assay; parameters: key: below the threshold = too weak to quantify, mostly under pKd 3.1 to 4; conditions: plain residues with an end cap or a label only (N-terminal biotin on a linker: ado-ado)

| Binder | pKd |
| --- | --- |
| AAVENKVTDL [PLXNB1, O43157] | below the threshold |
| PYPTADHMLA [JUP, P14923] | 3.77 |

molecular target: T10, GRIP1_3, Q9Y3R0; experiment: holdup assay; parameters: key: below the threshold = too weak to quantify, mostly under pKd 3.1 to 4; conditions: plain residues with an end cap or a label only (N-terminal biotin on a linker: ado-ado)
T10 sequence (Q9Y3R0 247-346, limits assumed, looked up): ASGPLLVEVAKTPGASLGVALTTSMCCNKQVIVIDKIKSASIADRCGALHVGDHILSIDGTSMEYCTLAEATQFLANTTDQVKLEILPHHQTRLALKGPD

| Binder | pKd |
| --- | --- |
| AAVENKVTDL [PLXNB1, O43157] | below the threshold |
| PYPTADHMLA [JUP, P14923] | below the threshold |

molecular target: Inadl_1, Q8NI35; experiment: holdup assay; parameters: key: below the threshold = too weak to quantify, mostly under pKd 3.1 to 4; conditions: plain residues with an end cap or a label only (N-terminal biotin on a linker: ado-ado)
Sequence (Q8NI35 113-229): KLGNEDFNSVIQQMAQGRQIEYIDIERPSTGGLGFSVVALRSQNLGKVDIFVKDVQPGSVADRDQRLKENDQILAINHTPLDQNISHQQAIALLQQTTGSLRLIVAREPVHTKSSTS

| Binder | pKd |
| --- | --- |
| AAVENKVTDL [PLXNB1, O43157] | below the threshold |
| PYPTADHMLA [JUP, P14923] | below the threshold |
